Drawing on US20160355587A1, this text covers Fold Increase in Kd and Kd for four molecules.

Experiment [1] addresses T1, human CD166 protein (human) (UniProt Q13740).
T1 sequence (looked up): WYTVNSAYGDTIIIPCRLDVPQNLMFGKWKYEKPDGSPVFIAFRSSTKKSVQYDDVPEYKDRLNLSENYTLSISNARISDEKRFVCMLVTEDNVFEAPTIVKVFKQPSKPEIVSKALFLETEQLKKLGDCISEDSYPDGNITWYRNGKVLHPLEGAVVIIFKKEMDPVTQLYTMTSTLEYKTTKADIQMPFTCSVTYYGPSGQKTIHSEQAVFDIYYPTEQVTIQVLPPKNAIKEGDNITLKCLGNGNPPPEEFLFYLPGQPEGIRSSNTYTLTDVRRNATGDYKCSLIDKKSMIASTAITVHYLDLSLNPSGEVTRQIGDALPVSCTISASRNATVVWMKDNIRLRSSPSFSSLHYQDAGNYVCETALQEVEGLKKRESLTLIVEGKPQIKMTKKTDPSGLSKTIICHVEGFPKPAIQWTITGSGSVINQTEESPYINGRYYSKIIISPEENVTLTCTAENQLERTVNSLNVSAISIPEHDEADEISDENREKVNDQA
In words: ELISA; relative to parental CD166 M9 vk1/HcB. In general terms: An ELISA detects its analyte on a solid surface through an enzyme-linked reagent.

The target in experiment [2] is T1, human CD166 protein (human). Briefly: ELISA, human CD166 protein coated; apparent Kd.

Changes are numbered by the printed parent chain.

B1: CD166-16522.18-2001 (antibody, part only; not given: linkers and constant regions, V domains shown, not shown: small tags and cut ends)
VH: QITLKESGPTLVKPTQTLTLTCTFSGFSLSTYGMGVGWIRQPPGKALEWLANIWWSEDKHYSPSLKSRLTITKDTSKNQVVLTMTNMDPVDTATYYCVQIDYGNDYAFTYWGQGTLVTVSS
VL, part: LEGWCLHPACLWGAGISSGLLSGRSDNHDIVMTQSPLSLPVTPGEPASISCRSSKSLLHSNGITYLYWYLQKPGQSPQLLIYQMSNLASGVPDRFSGSGSGTDFTLKISRVEAEDVGVYYCAQNLELPYTFGQGTKLEIK
With B1, in experiment [1], the Fold Increase in Kd turned out to be 13 fold. Further, the Kd in experiment [2] was determined as 57.7 nM.

B2: CD166-16522.20-2001 (antibody, part only; not given: linkers and constant regions, V domains shown, not shown: small tags and cut ends)
VH: B1 VH
VL, part: B1 VL, part with A9L, W12A
With B2, the Fold Increase in Kd in experiment [1] turned out to be 158 fold. In addition, the Kd in experiment [2] was 700 nM.

B3: CD166-16522.21-2001 (antibody, part only; not given: linkers and constant regions, V domains shown, not shown: small tags and cut ends)
VH: B1 VH
VL, part: CLHPLCISSGLLSGRSDNHDIVMTQSPLSLPVTPGEPASISCRSSKSLLHSNGITYLYWYLQKPGQSPQLLIYQMSNLASGVPDRFSGSGSGTDFTLKISRVEAEDVGVYYCAQNLELPYTFGQGTKLEIK
In the case of B3, in experiment [1], the Fold Increase in Kd is 33 fold. The Kd in experiment [2] came out at 145 nM.

B4: CD166-16522.19-2001 (antibody, part only; not given: linkers and constant regions, V domains shown, not shown: small tags and cut ends)
VH: B1 VH
VL, part: B1 VL, part with A9L, L11A
As for B4, the Fold Increase in Kd in experiment [1] was 11 fold. In experiment [2], the Kd was determined as 49.2 nM.
